The source of these data is patent US7981997B2, “Growth factor which acts through ErbB-4 RTK” (Yeda Research And Development Co., priority 2000, dated 2011).

Assay type in all cases: binding
The target in one experiment is T1, surface-expressed ErbB-4 (Homo sapiens, UniProt Q15303).
T1 construct: expressed in transfected cells; host or cells: CHO (Chinese Hamster Ovary) cells
In words: Covalent crosslinking to CHO cells transfected with ErbB-4. The conditions noted are these: expression of ErbB-4 alone. The method, then: (§1) CHO cells were transfected with vectors directing expression of the indicated ErbB proteins or their combinations. Two days later cell monolayers were incubated with either ^125I-NRG-1β or ^125I-NRG-4 (EGF-like domains, each at 100 ng/ml). Following 2 hours at 4° C., the covalent crosslinking reagent bis(sulfosuccinimdyl)-suberate (BS^3) was added (1 mM final concentration) and cell extracts prepared after an additional 45 minutes of incubation. The indicated ErbB proteins were then immunoprecipitated with mouse monoclonal antibodies, and the complexes resolved by gel electrophoresis and autoradiography. Arrows mark the locations of monomeric (M) and dimeric (D) receptor complexes.
(§2) Growth factors were labeled with Iodogen (Pierce) as described (Karunagaran et al., 1995). Chemical crosslinking to Chinese Hamster Ovary (CHO) cells engineered to express different ErbB combinations have been performed essentially as described (Tzahar et al., 1996). Briefly, radiolabeled ligands (at 100 ng/ml) were incubated for 2 hours with cell monolayers at 4 C. […] Non-specific binding was determined in the presence of a 100-fold molar excess of the unlabeled ligani. Cells were then washed, lysed in a solution containing 0.1 M NaOH and 0.1% SDS, and radioactivity determined by use of a gamma counter. […]

For a further experiment, the target named is T2, IgB-3 (soluble ErbB-3) (Homo sapiens, UniProt P21860).
T2 construct: Recombinant soluble extracellular domains of the four ErbB proteins (denoted IgB-1 through 4); made in house; host or cells: HEK-293 human embryonic kidney cells (conditioned medium)
In words: Covalent crosslinking of radiolabeled ligands to soluble ErbB-IgG fusion, cell-free. The conditions noted are these: 125I-labeled ligand, BS3 crosslinking. As for the experimental part: (§3) The four soluble forms of ErbB proteins, in the form of IgG fusions (denoted IgB-1 through 4), were separately incubated with the indicated radiolabeled growth factors. Where indicated (lower panel), an excess (100-fold) of unlabeled NRG-4 was co-incubated with the labeled ligand. Following 2 hours at 22° C., the covalent crosslinking reagent bis(sulfosuccinimdyl)-suberate (BS^3) was added (1 mM) and 45 minutes later the ligand-receptor complexes were immunoprecipitated with agarose-immobilized protein-A beads. Arrows mark the locations of monomeric (M) and dimeric (D) receptor complexes.
(§4) Growth factors were labeled with Iodogen (Pierce) as described (Karunagaran et al., 1995). Chemical crosslinking to Chinese Hamster Ovary (CHO) cells engineered to express different ErbB combinations have been performed essentially as described (Tzahar et al., 1996). Briefly, radiolabeled ligands (at 100 ng/ml) were incubated for 2 hours with cell monolayers at 4 C. The chemical crosslinking agent BS^3 (1 mM) was then added and the cells were further incubated for 45 minutes at 22 C. Mouse antibodies were first coupled to rabbit anti-mouse IgG and to protein A-Sepharose beads, and then they were incubated with cell extracts for 2 hours at 4 C. Immunoprecipitated complexes were then washed three times with ice-cold SBN buffer (1% NP-40; 150 mM NaCl; 10% Glycerol; 1 mM EGTA, in 50 mM Tris-HCl, pH 7.4; 1 ml per wash) prior to heating (5 minutes at 95 C) in gel sample buffer, resolution by gel electrophoresis, transfer to nitrocellulose and autoradiography. For crosslinking with IgBs, after co-incubation of IgB-containing conditioned media with radiolabeled ligands, complexes were immunoprecipitated directly with Sepharose-protein A beads. For ligand displacement analyses, cell monolayers were washed once with binding buffer, and then incubated for 2 hours at 4 C with radiolabeled […] (5 ng/ml) and various concentrations of unlabeled ligands, as indicated. Non-specific binding was determined in the presence of a 100-fold molar excess of the unlabeled ligani. Cells were then washed, lysed in a solution containing 0.1 M NaOH and 0.1% SDS, and radioactivity determined by use of a gamma counter.
(§5) In the first assay, binding studies in a cell-free system were performed with recombinant soluble forms of all four ErbB proteins. The soluble proteins, denoted IgB-1 through 4, consist of a dimeric fusion between the extracellular domain of the corresponding ErbB and the Fc portion of a human immunoglobulin G (Chen et al., 1996).

A further experiment deals with T3, IgB-4 (soluble ErbB-4) (Homo sapiens, UniProt Q15303).
T3 construct: Recombinant soluble extracellular domains of the four ErbB proteins (denoted IgB-1 through 4); made in house; host or cells: HEK-293 human embryonic kidney cells (conditioned medium)
T3 sequence (Q15303 26-651 limits assumed): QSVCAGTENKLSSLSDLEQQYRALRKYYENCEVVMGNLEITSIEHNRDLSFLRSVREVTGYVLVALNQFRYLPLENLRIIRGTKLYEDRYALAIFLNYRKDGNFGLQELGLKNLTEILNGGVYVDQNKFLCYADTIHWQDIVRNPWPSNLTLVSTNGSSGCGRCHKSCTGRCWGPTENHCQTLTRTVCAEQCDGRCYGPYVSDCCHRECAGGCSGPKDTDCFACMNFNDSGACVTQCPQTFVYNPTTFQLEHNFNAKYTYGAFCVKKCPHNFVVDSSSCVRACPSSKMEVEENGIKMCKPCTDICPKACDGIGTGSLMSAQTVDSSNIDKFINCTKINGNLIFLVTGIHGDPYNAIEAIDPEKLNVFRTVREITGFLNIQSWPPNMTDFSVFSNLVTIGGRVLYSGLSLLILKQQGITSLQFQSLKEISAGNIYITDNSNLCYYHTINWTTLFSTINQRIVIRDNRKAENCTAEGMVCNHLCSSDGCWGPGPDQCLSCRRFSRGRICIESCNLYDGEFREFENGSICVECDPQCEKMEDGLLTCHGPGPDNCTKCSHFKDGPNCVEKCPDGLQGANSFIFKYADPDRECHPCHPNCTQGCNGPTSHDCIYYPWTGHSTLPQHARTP
The description is as above. The method, then:
as §3, §4, §5

In another experiment the target is T4, IgB-1 (soluble ErbB-1) (Homo sapiens, UniProt P00533).
T4 construct: Recombinant soluble extracellular domains of the four ErbB proteins (denoted IgB-1 through 4); made in house; host or cells: HEK-293 human embryonic kidney cells (conditioned medium)
The description is as above. The note with it: 125I-labeled ligand, BS3 crosslinking.

For experiment [1], the target named is T5, ErbB-4 co-expressed with ErbB-3 (Homo sapiens, UniProt Q15303).
T5 construct: expressed in transfected cells; host or cells: CHO (Chinese Hamster Ovary) cells, transient co-transfection
As to the kind of experiment: Covalent crosslinking to CHO cells co-transfected with ErbB-4 and ErbB-3. The method, then:
as §1, §2

T5 sequence (Q15303 26-1308): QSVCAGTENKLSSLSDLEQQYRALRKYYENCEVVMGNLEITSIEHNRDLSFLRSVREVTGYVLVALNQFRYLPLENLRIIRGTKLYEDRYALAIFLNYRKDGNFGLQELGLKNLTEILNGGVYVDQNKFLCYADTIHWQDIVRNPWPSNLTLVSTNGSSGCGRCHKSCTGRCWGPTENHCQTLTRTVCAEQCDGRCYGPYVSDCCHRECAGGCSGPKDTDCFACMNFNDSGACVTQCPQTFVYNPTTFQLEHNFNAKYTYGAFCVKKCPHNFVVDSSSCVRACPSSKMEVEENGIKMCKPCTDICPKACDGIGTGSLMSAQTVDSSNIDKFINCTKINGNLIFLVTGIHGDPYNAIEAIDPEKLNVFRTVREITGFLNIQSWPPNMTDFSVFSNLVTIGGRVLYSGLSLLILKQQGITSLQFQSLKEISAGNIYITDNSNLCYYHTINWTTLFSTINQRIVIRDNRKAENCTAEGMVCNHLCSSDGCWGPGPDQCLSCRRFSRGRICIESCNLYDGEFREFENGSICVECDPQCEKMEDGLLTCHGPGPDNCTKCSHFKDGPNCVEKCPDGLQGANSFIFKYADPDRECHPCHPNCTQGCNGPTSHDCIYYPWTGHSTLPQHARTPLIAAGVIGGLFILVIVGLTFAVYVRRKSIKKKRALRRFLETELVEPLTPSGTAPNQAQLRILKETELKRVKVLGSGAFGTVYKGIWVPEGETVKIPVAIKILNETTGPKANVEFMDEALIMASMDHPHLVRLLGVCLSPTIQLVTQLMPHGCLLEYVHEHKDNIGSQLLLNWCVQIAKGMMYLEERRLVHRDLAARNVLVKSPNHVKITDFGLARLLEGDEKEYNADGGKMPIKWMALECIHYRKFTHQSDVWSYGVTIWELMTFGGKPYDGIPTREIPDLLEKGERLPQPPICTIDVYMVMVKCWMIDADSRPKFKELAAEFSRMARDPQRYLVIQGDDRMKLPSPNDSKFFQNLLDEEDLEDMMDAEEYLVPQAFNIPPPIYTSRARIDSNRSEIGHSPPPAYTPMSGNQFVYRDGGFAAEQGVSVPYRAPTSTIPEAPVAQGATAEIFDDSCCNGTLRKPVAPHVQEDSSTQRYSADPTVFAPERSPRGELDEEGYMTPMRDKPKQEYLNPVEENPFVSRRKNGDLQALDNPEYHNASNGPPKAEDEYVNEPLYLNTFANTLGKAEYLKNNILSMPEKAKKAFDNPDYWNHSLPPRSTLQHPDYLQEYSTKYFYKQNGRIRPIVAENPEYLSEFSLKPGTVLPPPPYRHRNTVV
T1 sequence (Q15303 26-1308, species assumed): as the sequence (Q15303 26-1308) above
T2 sequence (P21860 20-643 limits assumed): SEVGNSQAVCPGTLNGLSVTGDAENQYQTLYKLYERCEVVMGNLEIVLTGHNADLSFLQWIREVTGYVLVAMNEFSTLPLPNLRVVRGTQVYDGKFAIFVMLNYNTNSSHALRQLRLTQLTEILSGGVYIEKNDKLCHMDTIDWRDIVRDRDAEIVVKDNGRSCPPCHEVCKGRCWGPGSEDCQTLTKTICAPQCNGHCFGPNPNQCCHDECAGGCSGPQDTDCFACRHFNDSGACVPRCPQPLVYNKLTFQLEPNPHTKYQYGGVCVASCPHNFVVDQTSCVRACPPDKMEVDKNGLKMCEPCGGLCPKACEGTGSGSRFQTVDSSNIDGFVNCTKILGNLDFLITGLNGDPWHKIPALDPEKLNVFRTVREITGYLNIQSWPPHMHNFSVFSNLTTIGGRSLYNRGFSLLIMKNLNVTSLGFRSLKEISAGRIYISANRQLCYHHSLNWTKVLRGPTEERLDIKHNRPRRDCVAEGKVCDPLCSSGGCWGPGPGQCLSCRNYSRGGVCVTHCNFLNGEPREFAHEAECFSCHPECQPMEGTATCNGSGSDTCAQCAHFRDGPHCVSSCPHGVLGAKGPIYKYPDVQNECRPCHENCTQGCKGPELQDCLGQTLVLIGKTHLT

B1: NRG-4: synthetic refolded mouse EGF-like domain of NRG-4 (residues 4 to 50, SEQ ID NO:2) (peptide, listed as Mus musculus)
chain: MPTDHEQPCGPRHRSFCLNGGICYVIPTIPSPFCRCIENYTGARCEEVFLPSSSIPSESNLSAAFVVLAVLLTLTIAALCFLCRKGHLQRASSVQCEISLVETNNTRTRHSHREH
As for B1, in the experiment with surface-expressed ErbB-4, the “covalent crosslinking signal compared with radioactive NRG-1” value was “weaker than that observed with a radioactive NRG-1”. Also, the “complex formation with ErbB-4 on CHO cells” value with surface-expressed ErbB-4 (125I-ligand 100 ng/ml) is reported as “ability to form complexes”. Moreover, the “binding to IgB-3 (covalent crosslinking signal)” value with IgB-3 (soluble ErbB-3) is recorded as “low or no binding”. For the same molecule, the “binding to IgB-4 (covalent crosslinking signal)” value in the experiment with IgB-4 (soluble ErbB-4) (125I-labeled ligand, BS3 crosslinking) is “only weakly”. Besides, in the experiment with IgB-4 (soluble ErbB-4) (unlabeled NRG-4 at 100-fold molar excess), the “displacement of the radioactive ligand from IgB-4 by unlabeled NRG-4” value was “efficient displacement”. Further, the “binding to IgB-1 (covalent crosslinking signal)” value with IgB-1 (soluble ErbB-1) was “low or no binding”. The “effect of ErbB-3 co-expression on the radioactive signal” value in experiment [1] (CHO cells, ErbB-4 + ErbB-3) is recorded as “did not significantly affect the radioactive signals”. Moreover, in experiment [1] (following ligand binding), the “heterodimerization of ErbB-3 with ErbB-4” value was “largely escaped heterodimerization”.
